In publication PMC4022893:

Tests used:
[1] = molecular target: FSHR of the PathHunter FSHR β-arrestin assay cells (UniProt P23945); test: split reporter (BiFC, NanoBiT); PathHunter FSHR β-arrestin recruitment assay (DiscoveRx 93-0517C2) in CHO cells; cells stimulated with FSH, Compound 5, both, or the βT60E mutant; recruited β-arrestin normalized to 100% for the maximum response of FSH
[2] = 125I-FSH binding to CHO-hFSHR membranes ± Compound 5; settings: glycan lost; control: glycosylated FSH (about 3-fold more binding with Compound 5)

Sequence of FSHR of the PathHunter FSHR β-arrestin assay cells (P23945 18-695): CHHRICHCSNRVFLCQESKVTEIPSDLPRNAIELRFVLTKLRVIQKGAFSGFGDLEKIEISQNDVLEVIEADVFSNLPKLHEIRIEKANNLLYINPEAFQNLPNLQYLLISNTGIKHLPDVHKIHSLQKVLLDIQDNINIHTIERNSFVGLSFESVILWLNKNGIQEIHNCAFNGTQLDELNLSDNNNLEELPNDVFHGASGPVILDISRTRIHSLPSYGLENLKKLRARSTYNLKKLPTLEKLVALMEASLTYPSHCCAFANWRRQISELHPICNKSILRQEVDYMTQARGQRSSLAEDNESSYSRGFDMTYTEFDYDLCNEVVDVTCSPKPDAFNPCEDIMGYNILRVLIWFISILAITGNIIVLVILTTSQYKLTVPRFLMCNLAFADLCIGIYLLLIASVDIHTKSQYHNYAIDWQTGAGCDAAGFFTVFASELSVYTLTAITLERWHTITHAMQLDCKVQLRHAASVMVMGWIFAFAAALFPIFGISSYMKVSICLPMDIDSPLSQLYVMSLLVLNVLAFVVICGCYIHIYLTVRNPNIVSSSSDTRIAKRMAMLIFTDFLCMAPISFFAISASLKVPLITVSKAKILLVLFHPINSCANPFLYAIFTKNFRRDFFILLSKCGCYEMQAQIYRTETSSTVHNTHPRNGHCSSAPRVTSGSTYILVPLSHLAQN
Sequence of β-arrestin of the PathHunter FSHR β-arrestin assay cells (P32121 whole entry): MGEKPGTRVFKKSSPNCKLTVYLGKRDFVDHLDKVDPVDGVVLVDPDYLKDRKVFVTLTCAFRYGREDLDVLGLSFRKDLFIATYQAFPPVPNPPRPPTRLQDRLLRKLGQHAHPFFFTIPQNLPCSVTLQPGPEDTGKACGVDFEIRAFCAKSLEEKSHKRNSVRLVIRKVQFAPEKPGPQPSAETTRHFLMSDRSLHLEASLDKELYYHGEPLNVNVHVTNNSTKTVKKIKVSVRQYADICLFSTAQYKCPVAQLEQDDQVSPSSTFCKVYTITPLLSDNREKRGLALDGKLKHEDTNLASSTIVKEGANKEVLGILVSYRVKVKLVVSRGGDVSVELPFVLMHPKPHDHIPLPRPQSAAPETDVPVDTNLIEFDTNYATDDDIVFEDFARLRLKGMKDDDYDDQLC
Sequence of FSH α-subunit: αN52D (chain, as listed by the source N52D): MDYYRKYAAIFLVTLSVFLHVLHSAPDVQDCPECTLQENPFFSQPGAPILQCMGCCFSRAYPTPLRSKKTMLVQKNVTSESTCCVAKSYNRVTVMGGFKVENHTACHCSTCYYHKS

Row | β-arrestin recruited with Compound 5 plus FSH at EC100, percent of the maximum with FSH alone [1] [%] | β-arrestin recruited with FSH plus a high concentration of Compound 5, percent of the maximum with FSH alone [1] [%] | Substance | other: Compound 5 enhancement of FSHR binding [2]
1 | 280 | 280 | β-arrestin of the PathHunter FSHR β-arrestin assay cells (from UniProt P32121 1-409) (natural protein) | 
2 |  |  | FSH α-subunit: αN52D | decreases
